Data on 94 variants can be found in the supplement of paper PMC10567573.

To fix the notation:
B1: CCDC70 (parent)
chain: FSFKVSRWMGLACFRSLAASSPSI
B2: FBXO3 (parent)
chain: GGFPIIRDQIFRYVHDPECVATTG
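Further: lentivirally expressed fusions sorted by FACS into six bins by GFP to DsRed ratio, PSI derived from sequencing read proportions per bin multiplied by bin number.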

In the first data set the parent is B1. In words: protein stability index of a GFP-peptide fusion (GPS, HEK-293T) (PSI 1-6); higher = more stable. Particulars: c terminus: a fixed tail appended.
On to FSFKVSRWMGLACFRSLAASFPSI, for which the protein stability index is 3.31.
Same read-out and setting: with FSFKVSRWMGLACFRSLAASIPSI the figure was 3.37; with FSFKVSRWMGLACFRSLAASNPSI, 2.04.
As for FSFKVSRWMGLACFRSLAASQPSI, the protein stability index came out at 2.23.
Turning to FSFKVSRWMGLACFRSLAASRPSI, the protein stability index turned out to be 1.75.
As to FSFKVSRWMGLACFRSLAASGPSI, the protein stability index came out at 2.62.
On to FSFKVSRWMGLACFRSLAASCPSI, for which the protein stability index came to 2.05.
On the same count and under the same terms, with FSFKVSRWMGLACFRSLAASPPSI the figure was 3.96; with FSFKVSRWMGLACFRSLAASDPSI, 2.8; with FSFKVSRWMGLACFRSLAASWPSI, 2.85.
As to FSFKVSRWMGLACFRSLAASYPSI, the protein stability index was found to be 1.82.
In the case of FSFKVSRWMGLACFRSLAASEPSI, the protein stability index was found to be 3.18.
In the case of FSFKVSRWMGLACFRSLAASAPSI, the protein stability index was 1.99.
As to FSFKVSRWMGLACFRSLAASKPSI, the protein stability index stood at 2.57.
Still for that read-out and setting: with FSFKVSRWMGLACFRSLAASMPSI the figure was 3.02.
Consider FSFKVSRWMGLACFRSLAASLPSI, for which the protein stability index is 3.55.
In the case of FSFKVSRWMGLACFRSLAASSPTI, the protein stability index is 2.67.
Regarding FSFKVSRWMGLACFRSLAASSPCI, the protein stability index amounted to 2.6.
Regarding FSFKVSRWMGLACFRSLAASSPNI, the protein stability index is 3.56.
Regarding FSFKVSRWMGLACFRSLAASSPQI, the protein stability index came out at 3.59.
Regarding FSFKVSRWMGLACFRSLAASSPYI, the protein stability index was found to be 2.1.
Regarding FSFKVSRWMGLACFRSLAASSPVI, the protein stability index was 2.53.
For the variant FSFKVSRWMGLACFRSLAASSPDI, the protein stability index worked out at 3.88.
On to FSFKVSRWMGLACFRSLAASSPHI, for which the protein stability index turned out to be 1.65.
Regarding FSFKVSRWMGLACFRSLAASSPKI, the protein stability index stood at 2.68.
Same read-out and setting: with FSFKVSRWMGLACFRSLAASSPLI the figure was 4.22; with FSFKVSRWMGLACFRSLAASSPFI, 3.09.
In the case of FSFKVSRWMGLACFRSLAASSPSK, the protein stability index stood at 2.12.
As for FSFKVSRWMGLACFRSLAASSPSN, the protein stability index amounted to 2.33.
As to FSFKVSRWMGLACFRSLAASSPSC, the protein stability index came out at 1.94.
In the case of FSFKVSRWMGLACFRSLAASSPSA, the protein stability index is 2.67.
Same read-out and setting: with FSFKVSRWMGLACFRSLAASSPSQ the figure was 2.38; with FSFKVSRWMGLACFRSLAASSPSM, 2.23.
The same measure, in the same setting: with FSFKVSRWMGLACFRSLAASSPSE the figure was 1.44; with FSFKVSRWMGLACFRSLAASSPSP, 1.41.
Consider FSFKVSRWMGLACFRSLAASSPSY, for which the protein stability index amounted to 3.49.
Turning to FSFKVSRWMGLACFRSLAASSPSS, the protein stability index was found to be 2.06.
Consider FSFKVSRWMGLACFRSLAASSPSD, for which the protein stability index is 2.72.
As for FSFKVSRWMGLACFRSLAASSPSF, the protein stability index was determined as 2.56.
As for FSFKVSRWMGLACFRSLAASSPSL, the protein stability index was determined as 3.
FSFKVSRWMGLACFRSLAASSPSW: the protein stability index was found to be 3.1.
Take FSFKVSRWMGLACFRSLAASSPSG: the protein stability index was 2.36.
In the case of FSFKVSRWMGLACFRSLAASSESI, the protein stability index is 3.78.
FSFKVSRWMGLACFRSLAASSKSI: the protein stability index is 2.38.
Consider FSFKVSRWMGLACFRSLAASSASI, for which the protein stability index worked out at 1.68.
For the variant FSFKVSRWMGLACFRSLAASSDSI, the protein stability index was 2.97.
On the same count and under the same terms, with FSFKVSRWMGLACFRSLAASSYSI the figure was 2.86; with FSFKVSRWMGLACFRSLAASSRSI, 2.46.
Take FSFKVSRWMGLACFRSLAASSTSI: the protein stability index is 3.71.
Consider FSFKVSRWMGLACFRSLAASSFSI, for which the protein stability index amounted to 2.51.
Same read-out and setting: with FSFKVSRWMGLACFRSLAASSCSI the figure was 2.36.
On to FSFKVSRWMGLACFRSLAASSMSI, for which the protein stability index amounted to 3.36.
With FSFKVSRWMGLACFRSLAASSWSI, the protein stability index turned out to be 3.4.
Regarding FSFKVSRWMGLACFRSLAASSVSI, the protein stability index is 2.95.
On to FSFKVSRWMGLACFRSLAASSHSI, for which the protein stability index came to 1.85.
For the variant FSFKVSRWMGLACFRSLAASSNSI, the protein stability index stood at 3.22.
Still for that read-out and setting: with FSFKVSRWMGLACFRSLAASSQSI the figure was 3.8; with FSFKVSRWMGLACFRSLAAYSPSI, 2.74; with FSFKVSRWMGLACFRSLAAMSPSI, 2.2.
As to FSFKVSRWMGLACFRSLAARSPSI, the protein stability index worked out at 4.31.
The same measure, in the same setting: with FSFKVSRWMGLACFRSLAAWSPSI the figure was 3.37; with FSFKVSRWMGLACFRSLAAHSPSI, 1.81; with FSFKVSRWMGLACFRSLAATSPSI, 2.31.
Regarding FSFKVSRWMGLACFRSLAAGSPSI, the protein stability index stood at 2.51.
Consider FSFKVSRWMGLACFRSLAAPSPSI, for which the protein stability index is 1.35.
On to FSFKVSRWMGLACFRSLAAKSPSI, for which the protein stability index worked out at 3.32.
In the case of FSFKVSRWMGLACFRSLAAVSPSI, the protein stability index was 2.6.
On to FSFKVSRWMGLACFRSLAALSPSI, for which the protein stability index stood at 3.27.
Still for that read-out and setting: with FSFKVSRWMGLACFRSLAAISPSI the figure was 3.96; with FSFKVSRWMGLACFRSLAANSPSI, 2.46.

Variants of B2 are the subject of a further data set. The description is as above. Particulars: c terminus: a fixed tail appended.
For the variant GGFPILRDQIFRYVHDPECVATTG, the protein stability index was found to be 2.16.
For GGFPIPRDQIFRYVHDPECVATTG, the protein stability index was 2.35.
As to GGFPIYRDQIFRYVHDPECVATTG, the protein stability index is 1.99.
Still for that read-out and setting: with GGFPINRDQIFRYVHDPECVATTG the figure was 2.34.
As to GGFPIVRDQIFRYVHDPECVATTG, the protein stability index was 1.61.
Take GGFPICRDQIFRYVHDPECVATTG: the protein stability index turned out to be 1.96.
Take GGFPIMRDQIFRYVHDPECVATTG: the protein stability index was 1.46.
On to GGFPITRDQIFRYVHDPECVATTG, for which the protein stability index was 2.76.
GGFPIHRDQIFRYVHDPECVATTG: the protein stability index turned out to be 2.32.
Consider GGFPIDRDQIFRYVHDPECVATTG, for which the protein stability index was 3.56.
As to GGFPIGRDQIFRYVHDPECVATTG, the protein stability index stood at 2.23.
As to GGFPIRRDQIFRYVHDPECVATTG, the protein stability index stood at 2.13.
As to GGFPISRDQIFRYVHDPECVATTG, the protein stability index came out at 2.44.
For the variant GGFPIKRDQIFRYVHDPECVATTG, the protein stability index was determined as 2.52.
On the same count and under the same terms, with GGFPIERDQIFRYVHDPECVATTG the figure was 3.52; with GGFPIFRDQIFRYVHDPECVATTG, 1.46.
As to GGFPIQRDQIFRYVHDPECVATTG, the protein stability index turned out to be 2.69.
For the variant GGFPIARDQIFRYVHDPECVATTG, the protein stability index was 2.57.
Consider GGFPIWRDQIFRYVHDPECVATTG, for which the protein stability index came out at 1.82.
As for GWFPIIRDQIFRYVHDPECVATTG, the protein stability index worked out at 2.87.
GQFPIIRDQIFRYVHDPECVATTG: the protein stability index was determined as 1.25.
For GHFPIIRDQIFRYVHDPECVATTG, the protein stability index was 1.76.
Consider GIFPIIRDQIFRYVHDPECVATTG, for which the protein stability index came out at 2.2.
On to GAFPIIRDQIFRYVHDPECVATTG, for which the protein stability index stood at 1.82.
